The values below come from patent US20230381279A1, “PHARMACEUTICAL COMPOSITION FOR PREVENTING OR TREATING LUPUS-RELATED DISEASES COMPRISING GIP DERIVATIVE OR LONG-ACTING CONJUGATE THEREOF” (HANMI PHARM. CO., LTD., priority 2020, published 2023).

Sequences and labels used below:
T1: human GIP receptor (human, UniProt P48546 22-466)
T1 sequence (looked up): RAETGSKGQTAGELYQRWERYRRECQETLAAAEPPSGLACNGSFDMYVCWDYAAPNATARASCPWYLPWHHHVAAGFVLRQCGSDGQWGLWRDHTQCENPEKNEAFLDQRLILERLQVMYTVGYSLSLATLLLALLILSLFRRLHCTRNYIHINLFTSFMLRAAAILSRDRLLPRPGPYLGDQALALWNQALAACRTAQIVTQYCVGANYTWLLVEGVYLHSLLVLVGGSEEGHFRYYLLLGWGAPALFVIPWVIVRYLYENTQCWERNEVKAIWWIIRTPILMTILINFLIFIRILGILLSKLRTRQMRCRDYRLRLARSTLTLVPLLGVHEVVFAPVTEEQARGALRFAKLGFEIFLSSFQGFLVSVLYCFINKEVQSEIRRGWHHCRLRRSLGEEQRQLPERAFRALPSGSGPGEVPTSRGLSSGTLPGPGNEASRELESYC

T2: human GIP receptor (Homo sapiens, UniProt P48546)
T2 construct: expressed in transfected cells; host or cells: CHO (Chinese hamster ovary) cells
T2 sequence (P48546 22-466): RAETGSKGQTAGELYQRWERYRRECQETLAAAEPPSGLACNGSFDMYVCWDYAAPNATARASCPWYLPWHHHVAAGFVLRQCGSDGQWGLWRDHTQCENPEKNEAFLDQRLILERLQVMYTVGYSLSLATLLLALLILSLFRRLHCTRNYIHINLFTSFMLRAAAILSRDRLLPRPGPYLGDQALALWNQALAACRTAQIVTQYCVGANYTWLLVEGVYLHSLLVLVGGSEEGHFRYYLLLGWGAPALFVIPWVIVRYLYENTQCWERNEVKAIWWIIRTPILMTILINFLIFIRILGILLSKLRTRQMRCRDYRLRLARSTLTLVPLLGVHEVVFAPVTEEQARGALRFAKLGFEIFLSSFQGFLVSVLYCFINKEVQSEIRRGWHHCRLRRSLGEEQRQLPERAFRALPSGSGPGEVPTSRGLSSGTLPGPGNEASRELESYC

Non-standard residues stand in square brackets, D forms with d. No end group written: not given here. Aib = CC(C)(N)C(=O)O

One test deals with T1, human GIP receptor. The experiment in a line: cell-based or functional assay.
Conditions: not given
On to Y[Aib]EGTFISDYSIYLDAQAQQDFVNWLLAGGPSSGAPPPSC (not fully specified) [GIP derivative of SEQ ID NO: 7], for which the “In vitro activity of GIP derivative compared to human native GIP in human GIP receptor (%) (cAMP EC50, CHO cells expressing human GIP receptor)” value amounted to 19.6%. For Y[Aib]EGTFISDYSIYLDAQAAKDFVNWLLAGGPSSGAPPPSC (not fully specified) [GIP derivative of SEQ ID NO: 9], the “In vitro activity of GIP derivative compared to human native GIP in human GIP receptor (%) (cAMP EC50, CHO cells expressing human GIP receptor)” value turned out to be 2%. In the case of Y[Aib]EGTFISDYSIYMDAIAQQDFVNWLLAGGPSSGAPPPSC (not fully specified) [GIP derivative of SEQ ID NO: 4], the “In vitro activity of GIP derivative compared to human native GIP in human GIP receptor (%) (cAMP EC50, CHO cells expressing human GIP receptor)” value was determined as 10.5%. The same measure, in the same setting: with Y[Aib]EGTFISDYSIYLDAQAA[Aib]EFVNWLLAQKC (not fully specified) [GIP derivative of SEQ ID NO: 14] the figure was 17.4%; with Y[Aib]EGTFISDYSIYLDKQAA[Aib]EFVNWLL[Aib]GGPSSGAPPPSC (not fully specified) [GIP derivative of SEQ ID NO: 20], 75.3%; with Y[Aib]EGTFISDYSIAMDAIAQQDFVNWLLAQKGKKNDWKHNITQC (not fully specified) [GIP derivative of SEQ ID NO: 11], 122%. Regarding Y[Aib]EGTFISDYSIYLDAQAA[Aib]DFVNWLLAGGPSSGAPPPSC (not fully specified) [GIP derivative of SEQ ID NO: 8], the “In vitro activity of GIP derivative compared to human native GIP in human GIP receptor (%) (cAMP EC50, CHO cells expressing human GIP receptor)” value turned out to be 1.9%. Y[Aib]EGTFISDYSIALEKQAQQDFVNWLLAGGPSSGAPPPSC (not fully specified) [GIP derivative of SEQ ID NO: 17]: the “In vitro activity of GIP derivative compared to human native GIP in human GIP receptor (%) (cAMP EC50, CHO cells expressing human GIP receptor)” value was 111%. In the case of Y[Aib]EGTFISDYSIYLDKQAA[Aib]EFVNWLLAQKC (not fully specified) [GIP derivative of SEQ ID NO: 13], the “In vitro activity of GIP derivative compared to human native GIP in human GIP receptor (%) (cAMP EC50, CHO cells expressing human GIP receptor)” value worked out at 31.1%. Same read-out and setting: under Y[Aib]EGTFISDYSIQMDAIAQQDFVNWLLAGGPSSGAPPPSC (not fully specified) [GIP derivative of SEQ ID NO: 5] stands 12.1%. Consider Y[Aib]EGTFISDYSI[Aib]MDAIAQQDFVNWLLAGGPSSGAPPPSC (not fully specified) [GIP derivative of SEQ ID NO: 3], for which the “In vitro activity of GIP derivative compared to human native GIP in human GIP receptor (%) (cAMP EC50, CHO cells expressing human GIP receptor)” value was 15.6%. The same measure, in the same setting: under Y[Aib]EGTFISDYSIYLDKQAA[Aib]EFVQWLIAGHPSSGAPPPC (not fully specified) [GIP derivative of SEQ ID NO: 26] stands 66.7%; under Y[Aib]EGTFISDYSIYLDKQAA[Aib]EFVNWLLAQKGKKNDWKHNITQC (not fully specified) [GIP derivative of SEQ ID NO: 12], 49.2%.

With Y[Aib]EGTFISDYSIAMDAIAQQDFVNWLLAGGPSSGAPPPSC (not fully specified) [GIP derivative of SEQ ID NO: 2], the “In vitro activity of GIP derivative compared to human native GIP in human GIP receptor (%) (cAMP EC50, CHO cells expressing human GIP receptor)” value was found to be 13.9%.

For the molecule Y[Aib]EGTFISDYSIYLDKQAAQEFVNWLLAQKPSSGAPPPSC (not fully specified) [GIP derivative of SEQ ID NO: 18], the “In vitro activity of GIP derivative compared to human native GIP in human GIP receptor (%) (cAMP EC50, CHO cells expressing human GIP receptor)” value was determined as 13.6%. On the same count and under the same terms, under Y[Aib]EGTFISDYSIYLDKQAA[Aib]EFVQWLI[Aib]GGPSSGAPPPSC (not fully specified) [GIP derivative of SEQ ID NO: 25] stands 78.3%; under Y[Aib]EGTFISDYSIAMDGIAQQDFVNWLLAQKPSSGAPPPSC (not fully specified) [GIP derivative of SEQ ID NO: 16], 11.3%; under Y[Aib]EGTFISDYSIYLDAIAQQDFVNWLLAGGPSSGAPPPSC (not fully specified) [GIP derivative of SEQ ID NO: 6], 17.4%. Consider Y[Aib]EGTFISDYSIYLDKQAA[Aib]EFVNWLLAGHPSSGAPPPSC (not fully specified) [GIP derivative of SEQ ID NO: 22], for which the “In vitro activity of GIP derivative compared to human native GIP in human GIP receptor (%) (cAMP EC50, CHO cells expressing human GIP receptor)” value amounted to 71.6%. Regarding Y[Aib]EGTFISDYSI[Aib]LDKQAA[Aib]EFVNWLL[Aib]GHPSSGAPPPSC (not fully specified) [GIP derivative of SEQ ID NO: 24], the “In vitro activity of GIP derivative compared to human native GIP in human GIP receptor (%) (cAMP EC50, CHO cells expressing human GIP receptor)” value is 183%. Turning to Y[Aib]EGTFISDYSIYLDKQAA[Aib]EFVNWLL[Aib]GHPSSGAPPPSC (not fully specified) [GIP derivative of SEQ ID NO: 19], the “In vitro activity of GIP derivative compared to human native GIP in human GIP receptor (%) (cAMP EC50, CHO cells expressing human GIP receptor)” value came out at 66.7%. On to Y[Aib]EGTFISDYSIYLDAQAAKEFIAWLLAGGPSSGAPPPSC (not fully specified) [GIP derivative of SEQ ID NO: 10], for which the “In vitro activity of GIP derivative compared to human native GIP in human GIP receptor (%) (cAMP EC50, CHO cells expressing human GIP receptor)” value came out at 13.9%.

Turning to Y[Aib]EGTFISDYSIYLDKQAQKEFVNWLL[Aib]GGPSSGAPPPSC (not fully specified) [GIP derivative of SEQ ID NO: 23], the “In vitro activity of GIP derivative compared to human native GIP in human GIP receptor (%) (cAMP EC50, CHO cells expressing human GIP receptor)” value worked out at 87.6%. On to Y[Aib]EGTFISDYSI[Aib]LDKQAA[Aib]EFVNWLL[Aib]GGPSSGAPPPSC (not fully specified) [GIP derivative of SEQ ID NO: 21], for which the “In vitro activity of GIP derivative compared to human native GIP in human GIP receptor (%) (cAMP EC50, CHO cells expressing human GIP receptor)” value amounted to 123%.

As for Y[Aib]EGTFISDYSIAMDKIAQQDFVNWLLAQKPSSGAPPPSC (not fully specified) [GIP derivative of SEQ ID NO: 15], the “In vitro activity of GIP derivative compared to human native GIP in human GIP receptor (%) (cAMP EC50, CHO cells expressing human GIP receptor)” value came to 31.1%. As for Y[Aib]EGTFISDYSIAMDAIAQQDFVNWLLAQKPSSGAPPPSC (not fully specified) [GIP derivative of SEQ ID NO: 1], the “In vitro activity of GIP derivative compared to human native GIP in human GIP receptor (%) (cAMP EC50, CHO cells expressing human GIP receptor)” value amounted to 49.3%.

A further test concerns the target T2, human GIP receptor. Kind of test: In vitro activity of long-acting GIP conjugate: cAMP accumulation (LANCE cAMP kit) in CHO cells expressing human GIP receptor. It is filed as cell-based. The following applies: relative potency from cAMP EC50 vs human GIP, PEG-immunoglobulin Fc conjugates. On the procedure: To measure the activity of the long-acting GIP conjugates prepared in Example 3, a method of measuring cell activity in vitro using a cell line transformed with the GIP receptor was used in the same manner as in Example 2.
In detail, to measure the activity of the long-acting GIP derivatives in the human GIP receptors, human GIP was serially diluted from 16 nM to 0.000015 nM by 4 folds, and the long-acting GIP derivatives prepared in Example 1 were each serially diluted from 50 nM to 0.000048 nM by 4 folds. The culture medium was removed from the cultured CHO cells where the human GIP receptors were expressed, 5 μl of each of the serially diluted materials was added to the cells, and then, 5 μl of buffer containing cAMP antibody was added thereto, followed by incubation at room temperature for 15 minutes. Next, the cells were lysed by adding 10 μl of detection mix containing cell lysis buffer, and then allowed for a reaction at room temperature for 90 minutes. The cell lysate obtained by the completion of the reaction was applied to the LANCE cAMP kit (PerkinElmer, USA) to calculate the EC50 value through the accumulated cAMP to be compared with each other.
With “YAibEGT FISDYSIAMDAIAQQDFVNWLLAQKGKKNDWKHNITQC (Y[Aib]EGTFISDYSIAMDAIAQQDFVNWLLAQKGKKNDWKHNITQC) [SEQ ID NO: 11]”, the “In vitro activity of long-acting GIP derivative compared to human native GIP in human GIP receptor (%)” value was found to be 84.8%. In the case of “YAibEGT FISDY SIAibLD KQAAAib EFVNW LLAibGG PSSGA PPPSC (Y[Aib]EGTFISDYSI[Aib]LDKQAA[Aib]EFVNWLL[Aib]GGPSSGAPPPSC) [SEQ ID NO: 21]”, the “In vitro activity of long-acting GIP derivative compared to human native GIP in human GIP receptor (%)” value is reported as 148.5%. Consider “YAibEGT FISDYSIALEKQAQQDFVNWLLAGGPSSGAPPPSC (Y[Aib]EGTFISDYSIALEKQAQQDFVNWLLAGGPSSGAPPPSC) [SEQ ID NO: 17]”, for which the “In vitro activity of long-acting GIP derivative compared to human native GIP in human GIP receptor (%)” value came out at 153.2%. Consider “YAibEGT FISDY SIAibLD KQAAAib EFVNW LLAibGH PSSGA PPPSC (Y[Aib]EGTFISDYSI[Aib]LDKQAA[Aib]EFVNWLL[Aib]GHPSSGAPPPSC) [SEQ ID NO: 24]”, for which the “In vitro activity of long-acting GIP derivative compared to human native GIP in human GIP receptor (%)” value is 123.3%.
